Where two headings read alike, the source gives them in different places.
How the values were obtained:
[1] = ELISA, PMO uptake in mild SMA model (F0 mice) injected at PD5; assay type: in vivo, mouse; conditions: 40 mg/kg s.c. at PD5, tissues at PD7, ELISA
Source text: To target the motor neurons in the CNS via systemic administration, AOs need to cross the BBB in patients with SMA. For this study, we used a milder SMA model (F0) (Smn^–/– SMN2^+/+) with 4 SMN2 copies obtained from Jackson Laboratory (JAX 005058) that are viable, are fertile, and have shortened, thick tails since severe SMA model mice have a median survival of only 8 days, making it difficult to evaluate the treatment efficacy when the BBB is mature. […] To determine the ability of DG9-PMO to reach the CNS, we subcutaneously injected 40 mg/kg or 80 mg/kg fluorescently tagged DG9-PMO into F0 mice at PD0 or PD5. […] We also performed an ELISA to examine the biodistribution of unconjugated PMO and DG9-PMO at PD7.
ELISA was performed as described previously ([51], [69]). In brief, protein was extracted from frozen tissue sections (~20 μm) using RIPA buffer with cOmplete, Mini, EDTA-free protease inhibitor cocktail. The probes (Integrated DNA Technologies) were designed complementary to the PMO sequence with phosphorothioated backbones at the 5′ and 3′ ends. The 5′ and 3′ ends were labeled with digoxigenin and biotin, respectively. […] Attophos AP Fluorescent Substrate (Promega) was added to the PMO/DG9-PMO probes, and fluorescence was detected at 444 nm excitation and 555 nm emission by using a monochromator SpectraMax M3 plate reader (Molecular Devices).

[2] = Toxicology: serum markers, urinary KIM-1, liver and kidney histology; assay type: in vivo, mouse
Description: To further elucidate the possibility of long-term toxicity, we collected serum from the Hets and AO-treated mice at PD30–PD35. A toxicological evaluation was performed on the levels of alkaline phosphatase (ALP), alanine transaminase (ALT), aspartate aminotransferase (AST), creatine kinase (CK), creatinine, total bilirubin, total protein, albumin, globulin, and gamma-glutamyl transferase (GGT). […] We also performed a qualitative histological analysis of the liver and kidney and found no signs of observable toxicity (Supplemental Figure 9D). We also analyzed levels of urinary kidney injury marker-1 (KIM-1) following DG9-PMO treatment at both 40 and 80 mg/kg.
Blood was collected from the mice around PD30–PD40 (n = 4–10 per group) during the dissection procedure. The blood was left at RT for 30 minutes and centrifuged at 2,000 rcf. The resulting supernatant (serum) was transferred to a new 1.5 mL tube and stored at –20 °C. The serum samples were analyzed by IDEXX BioAnalytics. The evaluation was performed on a standard set of toxicity markers: glucose, total bilirubin, blood urea nitrogen, CK, creatinine, ALP, ALT, AST, GGT, globulin, albumin, and total protein. Urinary KIM-1 analysis was performed from urine collected from mice at PD30. The collected urine was centrifuged at 2,000 rcf at 4°C. […]

[3] = Hybridization-based ELISA, PMO concentration in tissues of severe SMA mice; assay type: in vivo; conditions: mouse, sc, 40 mg/kg s.c. at PD0, PD7 mice
Description: To determine the effects of DG9 peptide in increasing PMO uptake, we evaluated the biodistribution of unconjugated PMO and DG9-PMO in the peripheral and CNS tissues. We used a well-established hybridization-based ELISA designed specifically to detect the PMO to compare the concentration of DG9-PMO and unconjugated PMO in the tissues of treated PD7 mice ([51]).
ELISA was performed as described previously ([51], [69]). In brief, protein was extracted from frozen tissue sections (~20 μm) using RIPA buffer with cOmplete, Mini, EDTA-free protease inhibitor cocktail. The probes (Integrated DNA Technologies) were designed complementary to the PMO sequence with phosphorothioated backbones at the 5′ and 3′ ends. The 5′ and 3′ ends were labeled with digoxigenin and biotin, respectively. The tissue lysates (0.02 mg/mL protein concentration) were pretreated with 2.5 mg/mL trypsin containing 10 mM CaCl2 at 37°C overnight to digest the DG9 peptide. The probes were added to the samples and allowed to hybridize at 37°C for 30 minutes. Following the probe-PMO hybridization, the hybridized mixtures were added to Pierce NeutrAvidin Coated 96-Well Plates, Black (Thermo Fisher Scientific), to allow avidin-biotin interaction between the plate and the probes. The unhybridized probes were digested using micrococcal nuclease enzyme at 0.1 gel unit/μL (New England Biolabs). This was followed by the addition of an anti-digoxigenin antibody conjugated with ALP 1:5,000 (11093274910, Roche Applied Sciences). Attophos AP Fluorescent Substrate (Promega) was added to the PMO/DG9-PMO probes, and fluorescence was detected at 444 nm excitation and 555 nm emission by using a monochromator SpectraMax M3 plate reader (Molecular Devices).

[4] = test system: severe SMA mouse model; experiment: Body weight of SMA mice at PD7; assay type: in vivo
Description: Injections were carried out using a 30-gauge Hamilton syringe. SMA mice identified following genotyping were randomly assigned to a treatment group. The researcher injecting mice was blinded to the treatment. SMA neonates were subcutaneously injected with 40 or 80 mg/kg of AOs at PD0, while NT and heterozygous control mice were injected with saline (n = 10–49) per group. Tissues including the quadriceps muscle, liver, kidney, spleen, diaphragm, intercostal muscle, heart, brain, and spinal cord were collected and snap-frozen in dry ice– cooled isopentane, then subsequently stored at –80°C.

In the case of `CC(=O)N[C@@H](Cc1ccc(O)cc1)C(=O)N[C@@H](C)C(=O)N[C@H](CCCNC(=N)N)C(=O)N[C@H](C(=O)N[C@@H](CCCNC(=N)N)C(=O)N[C@@H](CCCNC(=N)N)C(=O)N[C@H](CCCNC(=N)N)C(=O)NCC(=O)N1CCC[C@H]1C(=O)N[C@@H](CCCNC(=N)N)C(=O)NCC(=O)N[C@@H](Cc1ccc(O)cc1)C(=O)N[C@@H](C)C(=O)N[C@H](CCCNC(=N)N)C(=O)N[C@H](C(=O)N[C@@H](CCCNC(=N)N)C(=O)N[C@@H](CCCNC(=N)N)C(=O)N[C@H](CCCNC(=N)N)C(=O)NCC(=O)N1CCC[C@H]1C(=O)N[C@@H](CCCNC(=N)N)C(=O)N[C@H](CCCNC(=N)N)C(=O)N1C[C@@H](COP(=O)(N(C)C)N2C[C@@H](COP(=O)(N(C)C)N3C[C@@H](COP(=O)(N(C)C)N4C[C@@H](COP(=O)(N(C)C)N5C[C@@H](COP(=O)(N(C)C)N6C[C@@H](COP(=O)(N(C)C)N7C[C@@H](COP(=O)(N(C)C)N8C[C@@H](COP(=O)(N(C)C)N9C[C@@H](COP(=O)(N(C)C)N%10C[C@@H](COP(=O)(N(C)C)N%11C[C@@H](COP(=O)(N(C)C)N%12C[C@@H](COP(=O)(N(C)C)N%13C[C@@H](COP(=O)(N(C)C)N%14C[C@@H](COP(=O)(N(C)C)N%15C[C@@H](COP(=O)(N(C)C)N%16C[C@@H](COP(=O)(N(C)C)N%17C[C@@H](COP(=O)(N(C)C)N%18C[C@@H](COP(=O)(N(C)C)N%19CCC(C(N)=O)CC%19)O[C@@H](n%19cc(C)c(=O)[nH]c%19=O)C%18)O[C@@H](n%18ccc(N)nc%18=O)C%17)O[C@@H](n%17cnc%18c(N)ncnc%18%17)C%16)O[C@@H](n%16ccc(N)nc%16=O)C%15)O[C@@H](n%15cc(C)c(=O)[nH]c%15=O)C%14)O[C@@H](n%14cc(C)c(=O)[nH]c%14=O)C%13)O[C@@H](n%13cc(C)c(=O)[nH]c%13=O)C%12)O[C@@H](n%12ccc(N)nc%12=O)C%11)O[C@@H](n%11cnc%12c(N)ncnc%12%11)C%10)O[C@@H](n%10cc(C)c(=O)[nH]c%10=O)C9)O[C@@H](n9cnc%10c(N)ncnc%109)C8)O[C@@H](n8cnc9c(N)ncnc98)C7)O[C@@H](n7cc(C)c(=O)[nH]c7=O)C6)O[C@@H](n6cnc7c(=O)[nH]c(N)nc76)C5)O[C@@H](n5ccc(N)nc5=O)C4)O[C@@H](n4cc(C)c(=O)[nH]c4=O)C3)O[C@@H](n3cnc4c(=O)[nH]c(N)nc43)C2)O[C@@H](n2cnc3c(=O)[nH]c(N)nc32)C1)C(C)C)C(C)C` (some centres unmarked) [DG9-PMO], the “uptake of PMO versus unconjugated PMO, mild SMA model (F0)” value [1] is reported as “significantly increased the uptake of PMO in the CNS and peripheral tissues”, the “urinary kidney injury marker-1 (KIM-1) compared to the Hets” value ([2]; 40 and 80 mg/kg, urine at PD30, sandwich ELISA) is reported as “no apparent increase” and the “toxicity on the liver and kidney” value ([2]; as high as 80 mg/kg dose) is reported as “no apparent toxicity”. The level at time molar at 7 days after dosing (PD7) ([3]; brain, n = 5, read-out: average AO detection, brain) was 8.36 nM, the level at time molar at 7 days after dosing (PD7) ([3]; heart, n = 4, read-out: average AO detection, heart) was 8.89 nM and the level at time molar at 7 days after dosing (PD7) ([3]; kidney, n = 6, read-out: average AO detection, kidney) was 20000 nM. For the same compound, the level at time molar at 7 days after dosing (PD7) ([3]; liver, n = 5, read-out: average AO detection, liver) was 200000 nM, the level at time molar at 7 days after dosing (PD7) ([3]; quadriceps muscle, n = 5, read-out: average AO detection, quadriceps muscle) was 12.2 nM and the level at time molar at 7 days after dosing (PD7) ([3]; spinal cord, n = 4, read-out: average AO detection, spinal cord) was 13.9 nM. The “body weight at PD7 versus R6G-PMO” value ([4]; 40 mg/kg s.c. at PD0) was “weighed significantly more than R6G-PMO–treated neonates” and the “body weight at PD7” value ([4]; both doses (40 and 80 mg/kg) s.c. at PD0) was “significantly heavier than the NT and unconjugated PMO–treated littermates”.

From publication PMC10077475, “DG9-conjugated morpholino rescues phenotype in SMA mice by reaching the CNS via a subcutaneous administration” (JCI Insight, 2023)
